# Laboratory results: patent US20200017880A1
# How the values were obtained:
# [1] = molecular target: CD3 on Jurkat cells and on PBMCs (UniProt P07766); assay: flow cytometry; second Fab-multimer staining of PBMCs that had been stained reversibly, treated with D-biotin and washed (control panel, far right)
# [2] = molecular target: CD28 on cells (PBMCs, T responder cells) (human) (UniProt P10747); assay: flow cytometry; Fab monomers remaining on the liberated CD28+ cells after D-biotin and washing, detected with an antibody against the immunoglobulin kappa light chain
# Sequence of UniProt P07766 (P07766 23-207): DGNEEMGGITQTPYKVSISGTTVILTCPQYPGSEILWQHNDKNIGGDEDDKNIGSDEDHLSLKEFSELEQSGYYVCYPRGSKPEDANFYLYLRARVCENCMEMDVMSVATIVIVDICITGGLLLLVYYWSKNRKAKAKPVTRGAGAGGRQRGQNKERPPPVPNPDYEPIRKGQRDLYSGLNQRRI
Substance,% of cells within gate [1],% of cells within gate [2]
OKT3 Fab fragments multimerized by reversible binding to soluble Strep-Tactin conjugated with phycoerythrin,64.7%,
"anti-CD28 Fab fragment derived from antibody CD28.3, heavy chain C-terminally fused to Twin-Strep-tag (monomeric Fab)",,5.91%
